Laboratory results reported in US20240270813A1 (UNIVERSITY OF PITTSBURGH OF THE COMMONWEALTH SYSTEM OF …, published 2024).
Where a chain is given by its changes, count along the chain named. Blank lines part the entries; values can stand above or below the binder they belong to.

Assays:
[1] = biological target: T1, minor histocompatibility antigen HA-1, immunogenic H variant peptide on HLA-A*02:01 (human); assay: multimer staining
T1 peptide: VLHDDLLEA

[2] = biological target: HA-1 “H” peptide (…) presented by HLA-A*02:01 on antigen presenting cells (human); assay: cell-based or functional assay

binding result [1]: recognises
B1: TCR X (TCR, V domains shown)
Valpha: GENVEQHPSTLSVQEGDSAVIKCTYSDSASNYFPWYKQELGKRPQLIIDIRSNVGEKKDQRIAVTLNKTAKHFSLHITETQPEDSAVYFCVVLGGAGNMLTFGGGTRLMVKP
Vbeta: DTGVSQDPRHKITKRGQNVTFRCDPISEHNRLYWYRQTLGQGPEFLTYFQNEAQLEKSRLLSDRFSAERPKGSFSTLEIQRTEQGDSAMYLCASSLTVSDGYTFGSGTRLTVV

binding result [1]: recognises
B2: TCR Z (TCR, V domains shown)
Valpha: QQVMQIPQYQHVQEGEDFTTYCNSSTTLSNIQWYKQRPGGHPVFLIQLVKSGEVKKQKRLTFQFGEAKKNSSLHITATQTTDVGTYFCAGPKGNTPLVFGKGTRLSVIA
Vbeta: B1 Vbeta with D100Y, G101E, Y102Q, T103Y, S106P, V113T

binding result [1]: recognises
B3: TCR AC (TCR, V domains shown)
Valpha: SQQGEEDPQALSIQEGENATMNCSYKTSINNLQWYRQNSGRGLVHLILIRSNEREKHSGRLRVTLDTSKKSSSLLITASRAADTASYFCAKNDMRFGAGTRLTVKP
Vbeta: B1 Vbeta with D7N, T97L, S99G, D100E, G101T, Y102Q, T103Y, S106P, T111L, V113L

binding result [1]: recognises
B4: TCR AD (TCR, V domains shown)
Valpha: SQQGEEDPQALSIQEGENATMNCSYKTSINNLQWYRQNSGRGLVHLILIRSNEREKHSGRLRVTLDTSKKSSSLLITASRAADTASYFCATVPTDYMYSGGGADGLTFGKGTHLIIQP
Vbeta: B1 Vbeta with D7N, T97V, V98R, S99L

binding result [1]: recognises
B5: TCR AA (TCR, V domains shown)
Valpha: QQQVKQSPQSLIVQKGGISIINCAYENTAFDYFPWYQQFPGKGPALLIAIRPDVSEKKEGRFTISFNKSAKQFSLHIMDSQPGDSATYFCAASSPGTYKYIFGTGTRLKVLA
Vbeta: B1 Vbeta with T97L, V98K, S99N, D100T, G101E, Y102A, T103F, S106Q

EC50 values for CD69 Expression [2]: 7.18 ng/mL
B6: TCR W (TCR, V domains shown)
V domain 1: AQSVAQPEDQVNVAEGNPLTVKCTYSVSGNPYLFWYVQYPNRGLQFLLKYITGDNLVKGSYGFEAEFNKSQTSFHLKKPSALVSDSALYFCAVRDPTSGTYKYIFGTGTRLKVLA
V domain 2: DTGVSQDPRHKITKRGQNVTFRCDPISEHNRLYWYRQTLGQGPEFLTYFQNEAQLEKSRLLSDRFSAERPKGSFSTLEIQRTEQGDSAMYLCASSLVQGNEQFFGPGTRLTVLE

EC50 values for CD69 Expression [2]: 1.1 ng/mL
B7: TCR AA (TCR, V domains shown)
V domain 1: B5 Valpha
V domain 2: B6 V domain 2 with V97L, Q98K, G99N, N100T, Q102A, P106Q, L113V

binding result [1]: recognises
B8: TCR W (TCR, V domains shown)
Valpha: B6 V domain 1
Vbeta: B1 Vbeta with T97V, V98Q, S99G, D100N, G101E, Y102Q, T103F, S106P, V113L

EC50 values for CD69 Expression [2]: 0.9 ng/mL
B9: TCR AC (TCR, V domains shown)
V domain 1: B3 Valpha
V domain 2: B6 V domain 2 with D7N, V97L, Q98V, N100E, E101T, F103Y, T111L

EC50 values for CD69 Expression [2]: 10.8 ng/mL
B10: TCR Y (TCR, V domains shown)
V domain 1: SQQGEEDPQALSIQEGENATMNCSYKTSINNLQWYRQNSGRGLVHLILIRSNEREKHSGRLRVTLDTSKKSSSLLITASRAADTASYFCATAYSGGGADGLTFGKGTHLIIQP
V domain 2: B6 V domain 2 with D7N, V97I, Q98R, G99A, N100E, E101K, Q102L, P106S, R109Q, T111S

EC50 values for CD69 Expression [2]: 1.5 ng/mL
B11: TCR Z (TCR, V domains shown)
V domain 1: B2 Valpha
V domain 2: B6 V domain 2 with V97T, Q98V, G99S, N100Y, F103Y, L113T

EC50 values for CD69 Expression [2]: 23.6 ng/mL
B12: TCR X (TCR, V domains shown)
V domain 1: B1 Valpha
V domain 2: B6 V domain 2 with V97T, Q98V, G99S, N100D, E101G, Q102Y, F103T, P106S, L113V

binding result [1]: recognises
B13: TCR AJ (TCR, V domains shown)
Valpha: EDQVTQSPEALRLQEGESSSLNCSYTVSGLRGLFWYRQDPGKGPEFLFTLYSAGEEKEKERLKATLTKKESFLHITAPKPEDSATYLCAVHSNAGGTSYGKLTFGQGTILTVHP
Vbeta: DAGVTQSPTHLIKTRGQHVTLRCSPISGHKSVSWYQQVLGQGPQFIFQYYEKEERGRGNFPDRFSARQFPNYSSELNVNALLLGDSALYLCASSADRGSPLHFGNGTRLTVT

EC50 values for CD69 Expression [2]: 125 ng/mL
B14: TCR V (TCR, V domains shown)
V domain 1: AQTVTQSQPEMSVQEAETVTLSCTYDTSENNYYLFWYKQPPSRQMILVIRQEAYKQQNATENRFSVNFQKAAKSFSLKISDSQLGDTAMYFCALYSGAGSYQLTFGKGTKLSVIP
V domain 2: DTGVSQDPRHKITKRGQNVTFRCDPISEHNRLYWYRQTLGQGPEFLTYFQNEAQLEKSRLLSDRFSAERPKGSFSTLEIQRTEQGDSAMYLCASSLAAGMNTEAFFGQGTRLTVVE

EC50 values for CD69 Expression [2]: 40.2 ng/mL
B15: TCR AB (TCR, V domains shown)
V domain 1: AQSVAQPEDQVNVAEGNPLTVKCTYSVSGNPYLFWYVQYPNRGLQFLLKYITGDNLVKGSYGFEAEFNKSQTSFHLKKPSALVSDSALYFCAVRVPTGGYQKVTFGIGTKLQVIP
V domain 2: DTGVSQNPRHKITKRGQNVTFRCDPISEHNRLYWYRQTLGQGPEFLTYFQNEAQLEKSRLLSDRFSAERPKGSFSTLEIQRTEQGDSAMYLCASKLTDTQYFGPGTRLTVLE

binding result [1]: recognises
B16: TCR AB (TCR, V domains shown)
Valpha: B15 V domain 1
Vbeta: DTGVSQNPRHKITKRGQNVTFRCDPISEHNRLYWYRQTLGQGPEFLTYFQNEAQLEKSRLLSDRFSAERPKGSFSTLEIQRTEQGDSAMYLCASKLTDTQYFGPGTRLTVL

binding result [1]: recognises
B17: TCR Y (TCR, V domains shown)
Valpha: B10 V domain 1
Vbeta: DTGVSQNPRHKITKRGQNVTFRCDPISEHNRLYWYRQTLGQGPEFLTYFQNEAQLEKSRLLSDRFSAERPKGSFSTLEIQRTEQGDSAMYLCASSLIRAEKLFFGSGTQLSVL
